Patent US20190343926A1 (priority 2017, published 2019)

Legend:
[1] = 35 mU/kg IV every six minutes, ten bursts
[2] = cited from earlier work
[3] = 0.25 mU/kg/min continuous IV insulin infusion; cited from earlier work

insulin
burst at which steady state (Cmax and Cmin bands) is reached [1]: fourth burst
drop in glucose levels ([2]; 40 mU/kg IV insulin over 3 minutes, over about 30 minutes): almost half
time for blood insulin to drop from 1000 to 500 ([2]; 40 mU/kg IV over 3 minutes): ~3 min
glucose decrease at steady state [3]: about 25%
